Measurements: patent US20160311886A1, “Constructs Binding to Phosphatidylserine and Their Use in Disease Treatment and Imaging” (Board of Regents, The University of Texas System, priority 2005, published 2016)
“Also recorded” adds a separate entry of the source.

How the values were obtained:
[1] = test system: IL-1α-stimulated bEnd.3 cells; test: Coaguligand-induced Factor Xa formation, chromogenic assay; format: cell-based, mouse; settings: 10 μg per ml Annexin V
Method: The ability of Annexin V to affect Factor Xa formation induced by coaguligand was determined by a chromogenic assay. IL-1α-stimulated bEnd.3 cells were incubated with anti-VCAM-·tTF and permeabilized by saponin. Annexin V was added at concentrations ranging from 0.1 to 10 μg/ml and cells were incubated for 30 min. before addition of diluted Proplex T. The amount of Factor Xa generated in the presence or absence of Annexin V was determined. Each treatment was performed in duplicate and repeated at least twice.

[2] = 3G4 reactivity with plastic-immobilized phospholipids and liposome competition; format: binding
Method: Phospholipids were dissolved in n-hexane to a concentration of 50 μg/ml. 100 μl of this solution was added to wells of 96-well microtiter plates. After evaporation of the solvent in air, the plates were blocked for 2 h with 10% FBS diluted in DPBS containing 2 mM Ca^2+ (binding buffer). […] Serial two-fold dilutions were prepared in the plates (100 μl per well). The plates were then incubated for 2 hr. at room temperature. […] Secondary reagents were detected by using chromogenic substrate OPD followed by reading plates at 490 nm using a microplate reader (Molecular Devices, Palo Alto, Calif.).
Specificity of phospholipid recognition was further confirmed by competition assays with various liposomes. […] The solutions were dried under nitrogen to form a thin layer in a round-bottomed glass flask. 10 ml of Tris buffer (0.1 M, pH 7.4) were then added and the flask was sonicated five times for 2 min. […] The mixture was added to phospholipid-coated plates.
Liposomes were prepared from solutions of 5 mg of a single phospholipid in chloroform. The solutions were dried under nitrogen to form a thin layer in a round-bottomed glass flask. Ten ml of Tris buffer (0.1 M, pH 7.4) were then added and the flask was sonicated five times for 2 min. […] The mixture was added to PS-coated plates (after standard blocking), incubated for 1 hour, washed and the secondary antibody added. After 1 hour, the plates were washed and developed for 5 minutes using OPD.

Meth A fibrosarcoma = test: 3G4 tumor treatment; format: in vivo, mouse
Method: Treatment was repeated 3 times a week. Animals were monitored twice a week for tumor measurements.
Groups of 8-10 female SCID mice were injected subcutaneously with 2×10^7 L540 cells or orthotopically with 1×10^7 MDA-MB-435 or MDA-MB-231 cells. BALB/c mice were injected subcutaneously with 1×10^6 Meth A cells. Tumors were allowed to grow to an average diameter of 0.8-1 cm (L540), 0.6-0.7 cm (MDA-MB-435), 0.5-0.7 cm (MDA-MB-231), or <0.1 cm (Meth A). […] Animals were monitored three times a week for tumor size and body weight. Mice were sacrificed when tumors in control mice reached a diameter of 1.5-2 cm.

[3] = 3G4 toxicity studies in mice; format: in vivo, mouse
Description: The following parameters were specifically examined.
Mice retain normal physical signs, bone marrow cellularity, white blood cell counts, histology and coagulation functions.

hβ2GPI domains = test: ELISA on recombinant hβ2GPI domain constructs; format: binding, human; settings: constructs I-V, II-V, III-V, IV-V
Method: The assay was performed as described above with the following modifications. hβ2GPI, nicked hβ2GPI, or recombinant hβ2GPI peptides were coated on 96-well Immunlon 2HB microtiter plates overnight at a concentration of 10 μg/ml. Plates were then blocked in 1% OVA for 1 hr. at room temperature. […] Plates were incubated for 1 hr. at 37° C. and antibody binding was detected. All ELISA studies were performed at least three times.
β2GPI has five domains, of which the fifth domain is responsible for binding to anionic phospholipids. […] These domain constructs were made by serial truncations from the N-terminus, and so lack each of the N-terminal domains in turn, as follows: recombinant full-length hβ2GPI contains domains I-V; hβ2GPI from which domain I has been deleted contains domains II-V; hβ2GPI from which domains I and II have been deleted contains domains III-V; hβ2GPI from which domains I, II and III have been deleted contains domains IV-V; and hββ2GPI from which domains I, II, III and IV have been deleted contains domain V only.

[4] = test system: ABAE cells with exposed PS; test: Live-cell binding assay on LPC-treated endothelial cells; format: cell-based, bovine; settings: DMEM+10% FBS
In short: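 ABAE cells cultured overnight were treated with 200 μM lysophosphatidylcholine to expose PS, then fixed in 4% paraformaldehyde and antibody binding was detected with biotin anti-mouse secondary plus FITC-streptavidin, with DAPI counterstain. Binding area is expressed as FITC/DAPI pixel ratio relative to basal binding, averaged over five 200× images (±SD).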

human CMV AD169 = test: CMV plaque assay after antibody treatment

For “Annexin V: High affinity PS binding ligand; natural ligand binding anionic phospholipids and PE”, the “inhibition of factor Xa production” value [1] was 58%.

B1: 3G4: Mouse IgG3 kappa monoclonal antibody to PS and anionic phospholipids; binding mediated by β2-glycoprotein I (antibody, listed as Mus musculus)
VH: MGWTWIFILILSVTTGVHSEVQLQQSGPELEKPGASVKLSCKASGYSFTGYNMNWVKQSHGKSLEWIGHIDPYYGDTSYNQKFRGKATLTVDKSSSTAYMQLKSLTSEDSAVYYCVKGGYYGHWYFDVWGAGTTVTVSSATTTAPSVYPLVP
VL: MDMRAPAQILGFLLLLFPGTRCDIQMTQSPSSLSASLGERVSLTCRASQDIGSSLNWLQQGPDGTIKRLIYATSSLDSGVPKRFSGSRSGSDYSLTISSLESEDFVDYYCLQYVSSPPTFGAGTKLELKRADAAPTVFIFGRIP
In the case of B1, the “binding to neutral phospholipids (PE, PC and SM) in ELISA” value [2] is reported as “does not bind”, the “binding to anionic phospholipid-coated plates” value ([2]; 1 mg/ml human β2-glycoprotein I, no serum) is reported as “Full binding was restored” and the “effect of EDTA on binding” value ([2]; 5 mM EDTA) is reported as “unaffected”. The “reduction of binding to anionic phospholipid-coated plates” value ([2]; absence of serum) was 90%, the “competition by phospholipid liposomes” value ([2]; liposomes of single phospholipids) was “blocked by liposomes prepared from PS, PA, PI and CL; also recorded: blocked by liposomes prepared from anionic phospholipids” and the “mice with long-term complete remissions” value (Meth A fibrosarcoma; Meth A-bearing mice) was 50%. The “retardation of tumor growth” value (Meth A fibrosarcoma; syngeneic Meth A fibrosarcoma) was 90%, the “blood coagulation parameters (PT, APTT, D-dimer)” value ([3]; 100 μg IP three times a week) was “normal” and the toxicity ([3]; 1 mg purified antibody intraperitoneally) was “no toxicity was observed”. For the same molecule, the “physical signs of toxicity” value ([3]; BALB/c mice, 100 μg IP three times a week for 2 to 4 weeks) was “No physical signs of toxicity have been observed”, the “physical signs of toxicity” value ([3]; single i.p. 2 mg, or 0.5 mg daily for 14 days) was “showed no physical signs of toxicity” and the “Bone marrow cellularity and composition” value ([3]; six injections, 100 μg) was “normal”. For the same molecule, the β2GPI domain recognized (hβ2GPI domains) was “binds to β2GPI at domain II”, the “binding to LPC-treated ABAE cells” value ([4]; 20 nM) was “bound to LPC-treated ABAE cells” and the “increase in area of binding upon LPC-treatment” value ([4]; 200 μM LPC) was “greater than 500 fold”. For the same molecule, the “inhibitory effect on viral titer” value (human CMV AD169; high m.o.i., addition delayed to 48 hours) was 2 log10, the “decrease in viral titer” value (human CMV AD169; high m.o.i., addition up to 24 hours after infection) was 5-6 log10 and the “inhibition of viral replication vs GV39G” value (human CMV AD169; m.o.i. of 3, 50 μg/ml) was 3 logs. For the same molecule, the “decrease in viral titer vs GV39G” value (human CMV AD169; m.o.i. of 3, 100 μg/ml) was 5 log10, the “decrease in viral titer vs GV39G” value (human CMV AD169; m.o.i.=0.01, 50 μg/ml) was 3.5 log10 and the “inhibition of viral replication” value (human CMV AD169; m.o.i.=0.01, 100 μg/ml) was “approximately 99.9999%”. For the same molecule, the “decrease in viral titer vs GV39G” value (human CMV AD169; m.o.i.=0.01 pfu/cell, 100 μg/ml) was 6 log10.
